This note sets out measurements from patent US20200270125A1 (OMEROS, published 2020).

By EC50 is commonly meant the concentration at which the effect is half-maximal.

The target in assay [1] is T1, human MASP-3 CCP1-CCP2-SP fragment (human).
T1 construct: limits of the assay construct are not restated; also called rMASP-3 (CCP1-CCP2-SP)
T1 chain: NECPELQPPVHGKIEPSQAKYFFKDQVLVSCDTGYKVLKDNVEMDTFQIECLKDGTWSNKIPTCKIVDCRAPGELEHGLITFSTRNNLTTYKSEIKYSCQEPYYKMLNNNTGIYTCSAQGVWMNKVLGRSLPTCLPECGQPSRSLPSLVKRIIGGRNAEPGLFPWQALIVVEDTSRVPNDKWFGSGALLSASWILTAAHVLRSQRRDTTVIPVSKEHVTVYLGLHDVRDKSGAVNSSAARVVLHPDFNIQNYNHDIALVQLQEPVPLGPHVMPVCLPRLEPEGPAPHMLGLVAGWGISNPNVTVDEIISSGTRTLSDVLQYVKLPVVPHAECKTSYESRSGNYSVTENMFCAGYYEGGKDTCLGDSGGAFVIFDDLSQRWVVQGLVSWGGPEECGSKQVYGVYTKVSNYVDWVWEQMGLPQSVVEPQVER
The assay is described as follows: sandwich ELISA, MASP-3 CCP1-CCP2-SP captured by αM3-259. On the procedure: (§1) The plate was then washed (PBS-T, 0.05%) and the candidate MASP-3 antibodies were added followed by incubation for one hour at room temperature. The plate was washed (PBS-T, 0.05%) and a detection antibody was added (mouse anti-human kappa-HRP, SouthernBiotech #9230-05) for one hour at room temperature. After another wash (PBS-T, 0.05%) the plate was developed (5 minutes) with OPT EIA TMB (BD Biosciences #555214). Absorbance reading at A450 was measured using the Spectramax M5e plate reader.
On the technique in general: An ELISA detects its analyte on a solid surface through an enzyme-linked reagent.

For assay [2], the target named is T2, recombinant human MASP-2 (CCP1-CCP2-SP fragment) (human, UniProt O00187 298-686, limits assumed).
T2 construct: domain: CCP1-CCP2-SP fragment
T2 sequence (O00187 298-686 limits assumed): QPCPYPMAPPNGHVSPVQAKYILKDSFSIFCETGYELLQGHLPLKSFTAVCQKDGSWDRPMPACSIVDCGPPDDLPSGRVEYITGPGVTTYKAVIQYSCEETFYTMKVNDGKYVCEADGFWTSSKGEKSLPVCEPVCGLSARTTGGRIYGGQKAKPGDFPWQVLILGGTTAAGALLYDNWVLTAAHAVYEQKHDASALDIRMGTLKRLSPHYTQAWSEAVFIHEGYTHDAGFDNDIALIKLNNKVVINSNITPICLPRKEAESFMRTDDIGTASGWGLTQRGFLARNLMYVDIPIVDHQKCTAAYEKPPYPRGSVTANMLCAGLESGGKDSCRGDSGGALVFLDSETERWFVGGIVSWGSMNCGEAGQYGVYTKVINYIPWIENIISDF
The assay is described as follows: ELISA: recombinant MASP-2 (CCP1-CCP2-SP) coated directly on the plate, A450. On the procedure:
as §1

The target in assay [3] is T3, recombinant full-length mouse MASP-3 (mouse).
T3 construct: Entry is with leader; also called mouse full length MASP-3
T3 chain: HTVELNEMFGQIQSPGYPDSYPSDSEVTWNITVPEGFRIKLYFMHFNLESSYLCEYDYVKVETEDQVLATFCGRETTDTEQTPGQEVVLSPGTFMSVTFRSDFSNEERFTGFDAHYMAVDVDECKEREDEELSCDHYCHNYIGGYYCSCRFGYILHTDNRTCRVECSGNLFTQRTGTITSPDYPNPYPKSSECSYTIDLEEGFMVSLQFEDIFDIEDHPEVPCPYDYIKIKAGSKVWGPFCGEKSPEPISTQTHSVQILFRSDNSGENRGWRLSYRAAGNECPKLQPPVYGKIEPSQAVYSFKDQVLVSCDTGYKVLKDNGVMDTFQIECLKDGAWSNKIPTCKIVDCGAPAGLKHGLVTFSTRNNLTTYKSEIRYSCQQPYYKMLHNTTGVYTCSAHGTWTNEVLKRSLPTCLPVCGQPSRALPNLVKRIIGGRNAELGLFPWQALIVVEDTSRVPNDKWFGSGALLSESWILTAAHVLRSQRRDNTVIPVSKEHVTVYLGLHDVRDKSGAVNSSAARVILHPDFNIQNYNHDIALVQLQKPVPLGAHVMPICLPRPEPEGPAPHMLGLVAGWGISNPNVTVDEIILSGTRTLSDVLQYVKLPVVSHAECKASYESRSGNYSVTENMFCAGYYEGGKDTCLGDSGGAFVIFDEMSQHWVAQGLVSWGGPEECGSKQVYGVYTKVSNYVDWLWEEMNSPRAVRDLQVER
The assay is described as follows: sandwich ELISA, full-length mouse MASP-3 captured by αM3-259. On the procedure:
as §1

The target in assay [4] is T4, human MASP-3 (construct not stated) (human).
T4 construct: also called MASP-3 antigen
T4 chain: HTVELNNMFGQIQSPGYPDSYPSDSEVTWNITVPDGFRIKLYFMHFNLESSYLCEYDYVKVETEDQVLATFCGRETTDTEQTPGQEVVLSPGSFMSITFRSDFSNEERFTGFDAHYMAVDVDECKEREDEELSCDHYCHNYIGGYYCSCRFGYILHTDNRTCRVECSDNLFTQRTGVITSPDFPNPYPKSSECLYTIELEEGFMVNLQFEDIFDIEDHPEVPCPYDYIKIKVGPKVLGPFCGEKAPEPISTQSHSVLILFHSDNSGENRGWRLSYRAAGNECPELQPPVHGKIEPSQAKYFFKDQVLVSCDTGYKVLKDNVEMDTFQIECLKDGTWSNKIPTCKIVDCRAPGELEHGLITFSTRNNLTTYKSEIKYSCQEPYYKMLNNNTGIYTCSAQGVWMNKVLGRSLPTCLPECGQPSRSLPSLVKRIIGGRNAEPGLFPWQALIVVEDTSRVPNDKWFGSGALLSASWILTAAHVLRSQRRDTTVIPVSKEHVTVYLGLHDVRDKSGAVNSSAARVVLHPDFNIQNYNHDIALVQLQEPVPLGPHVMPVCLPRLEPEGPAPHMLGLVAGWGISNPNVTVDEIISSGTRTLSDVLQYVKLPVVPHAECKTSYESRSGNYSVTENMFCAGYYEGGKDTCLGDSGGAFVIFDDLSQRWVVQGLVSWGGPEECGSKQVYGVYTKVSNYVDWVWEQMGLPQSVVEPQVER
The assay is described as follows: not described at this place.

For assay [5], the target named is T4, human MASP-3 (construct not stated). The assay can be described thus: cell-based or functional assay.
The target in assay [6] is T5, recombinant human MASP-1A (S646A, CCP1-CCP2-SP fragment) (human, UniProt P48740 298-699, limits assumed).
T5 chain: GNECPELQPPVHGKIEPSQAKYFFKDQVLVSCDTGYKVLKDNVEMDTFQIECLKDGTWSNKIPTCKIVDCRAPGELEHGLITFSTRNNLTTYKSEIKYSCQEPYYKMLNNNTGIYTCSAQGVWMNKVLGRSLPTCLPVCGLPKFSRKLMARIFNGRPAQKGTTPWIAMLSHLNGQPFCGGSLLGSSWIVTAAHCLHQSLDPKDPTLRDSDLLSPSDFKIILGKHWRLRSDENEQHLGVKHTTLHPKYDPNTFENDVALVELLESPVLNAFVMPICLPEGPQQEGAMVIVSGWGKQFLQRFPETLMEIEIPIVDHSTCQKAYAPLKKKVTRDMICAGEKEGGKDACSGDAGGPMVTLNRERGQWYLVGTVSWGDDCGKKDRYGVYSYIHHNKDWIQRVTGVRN
The assay can be described thus: ELISA: recombinant MASP-1A (S646A, CCP1-CCP2-SP) coated directly on the plate, A450. The protocol:
as §1

Assay [7] has as its target T4, human MASP-3 (construct not stated). The assay can be described thus: cell-based or functional assay.
Assay [8] concerns the target T1, human MASP-3 CCP1-CCP2-SP fragment. The assay can be described thus: cell-based or functional assay.

B1: MASP-3 mAb 2F5 (mouse-human chimeric IgG4) (antibody, V domains shown)
VH: EVQLQQPGAELVKPGASVKMSCKASGYTFTSYWITWVKQRPGQGLEWIGDIYPGSGSTNYNEKFKSKATLTVDTSSSTAYMQLSSLTSEDSAVYYCARRRYYATAWFAYWGQGTLVTVSS
VL: DIVMTQSQKFMSTSVGDRVSITCKASQNVGTAVAWYQQKPGQSPKLLISSASNRYTGVPDRFTGSGSGTDFTLTISNMQSEDVADYFCQQYNSYPLTFGAGTKLELKR
B1: the EC50 came to 0.073 nM in assay [1] and 0.102 nM in assay [3]. In addition, the binding result in assay [2] and in assay [6] was “no binding (tested: about 20 nM (log10 about 1.3))” throughout. Also, the binding affinity in assay [4] is at most 500 pM. Also, the “Inhibition of Rabbit Erythrocyte Lysis (IC50 nM), 10% factor D-depleted human serum” value in assay [5] stood at 0.9 nM.

B2: MASP-3 mAb 2F2 (mouse-human chimeric IgG4) (antibody, V domains shown)
VH: QVQLKQSGAELVTPGASVKMSCKASGYTFTTYPIEWMKQNHGKSLEWIGNFHPYNDDTKYNEKFKGKATLTVEKSSNTVYLELSRLTSDDSAVYFCARRVYYSYFWFGYWGHGTLVTVSS
VL: DIVMTQSQKFMSTSVGDRVNVTCKASQNVGTHVAWYQQKPGQSPKALIYSASYRYSGVPDRFTGSGSGTDFTLTISNVQSEDLAEYFCQQYNSYPRALTFGAGTKLELKR
For B2, the half-maximal effective concentration (EC50) is 0.057 nM in assay [1] and 0.105 nM in assay [3]. Moreover, the binding result in assay [2] and in assay [6] was “no binding (tested: about 20 nM (log10 about 1.3))” each time. The binding affinity in assay [4] was at most 500 pM. The “Inhibition of Rabbit Erythrocyte Lysis (IC50 nM), 10% factor D-depleted human serum” value in assay [5] worked out at 0.8 nM.

B3: MASP-3 mAb 2D7 (mouse-human chimeric IgG4) (antibody, V domains shown)
VH: EVQLQQSGPELVKPGASVKVSCKASGYTLTDYYMNWVKQSHGKSLEWIGDVNPNNDGTTYNQKFKGRATLTVDKSSNTASMELRSLTSEDSAVYYCAICPFYYLGKGTHFDYWGQGTSLTVSS
VL: DIQMTQTPASLSASLGDRVTISCRASQDISNFLNWYQQKPNGTVKLLVFYTSRLHSGVPSRFSGSGSGAEHSLTISNLEQEDVATYFCQQGFTLPWTFGGGTKVEIKR
As to B3, the EC50 in assay [1] worked out at 0.122 nM. In addition, the binding result in assay [2] and in assay [6] was “no binding (tested: about 20 nM (log10 about 1.3))” throughout. In addition, the “Inhibition of Factor Bb Deposition on Zymosan (IC50 nM), 10% factor D-depleted human serum with pro-factor D” value in assay [7] amounted to 3.5 nM. In assay [4], this molecule yielded a binding affinity of at most 500 pM. For the same molecule, in assay [5], the “Inhibition of Rabbit Erythrocyte Lysis (IC50 nM), 10% factor D-depleted human serum” value amounted to 5.4 nM.

B4: MASP-3 mAb 1A10 (mouse-human chimeric IgG4) (antibody, V domains shown)
VH: QVQLKQSGPELVKPGASVKLSCKASGYTFTSNDINWVKQRPGQGLEWIGWIYPRDGTTKYNEKFTDKATLTVDVSSSTAFMELHRLTSEDSAVYFCSSVEDSYWGQGTLVTVSS
VL: DIVMTQSPSSLAVSAGEKVTMSCKSSQSLLISRTRKNYLSWYQQKPGQSPKLLIYWASTRESGVPDRFTGSGSGTDFTLTISSVQAEDLAVYYCKQSYNLYTFGGGTKLEIKR
notes: The light chain of 1A10 was not identified
For the molecule B4, the “inhibition of MASP-3-dependent fluorogenic tripeptide (BOC-V-P-R-AMC) cleavage” value (“inhibition … (BOC-V-P-R-AMC) cleavage” for short) in assay [8] came out at 29.8 nM. Also, the EC50 was 0.241 nM in assay [1] and 0.15 nM in assay [3]. In addition, the binding result in assay [2] and in assay [6] was “no binding (tested: about 20 nM (log10 about 1.3))” each time. In addition, the binding affinity in assay [4] is at most 500 pM. Besides, the “Inhibition of Rabbit Erythrocyte Lysis (IC50 nM), 10% factor D-depleted human serum” value in assay [5] was found to be 0.2 nM.

B5: MASP-3 mAb 1F3 (mouse-human chimeric IgG4) (antibody, V domains shown)
VH: QVQLKQSGPELVKPGASVKLSCKASGYTFTSNDINWVKQRPGQGLEWIGWIYPRDGSIKYNEKFTDKATLTVDVSSSTAYMELHSLTSEDSAVYFCSGVEDSYWGQGTLVTVSS
VL: DIVMTQSPSSLAVSAGERVTMSCKSSQSLLISRTRKNYLSWYQQKPGQSPKLLIYWASTRESGVPDRFTGSGSGTDFTLTISSVQAEDLAVYYCKQSYNLYTFGGGTKLEIKR
For the molecule B5, the “inhibition … (BOC-V-P-R-AMC) cleavage” value in assay [8] is 33 nM. For the same molecule, the concentration giving a half-maximal response (EC50) in assay [1] was determined as 0.236 nM; in assay [3] it was 0.111 nM. The binding result in assay [2] and in assay [6] was “no binding (tested: about 20 nM (log10 about 1.3))” in each case. Further, in assay [7], the “Inhibition of Factor Bb Deposition on Zymosan (IC50 nM), 10% factor D-depleted human serum with pro-factor D” value was 0.1 nM. The molecule also returned a binding affinity in assay [4] of at most 500 pM. Also, the “Inhibition of Rabbit Erythrocyte Lysis (IC50 nM), 10% factor D-depleted human serum” value in assay [5] came out at 0.2 nM.

B6: MASP-3 mAb 4B6 (mouse-human chimeric IgG4) (antibody, V domains shown)
VH: QVQLKQSGPELVKPGASVKLSCKASGYTFTSNDINWVKQRPGQGLEWIGWIYPRDGTTKYNEEFTDKATLTVDVSSSTAFMELHSLTSEDSAVYFCSSVEDSYWGQGTLVTVSS
VL: DIVMTQSPSSLAVSAGEKVTMSCKSSQSLLISRTRKNYLSWYQQKPGQSPKLLIYWASTRESGVPDRFTGSGSGTDFTLTISSVQAEDLAVYYCKQSYNLYTFGGGTKLEIKR
For the molecule B6, the “inhibition … (BOC-V-P-R-AMC) cleavage” value in assay [8] came to 26 nM. Further, the results for the EC50 in assay [1] and in assay [3] were 0.211 nM and 0.188 nM, respectively. For the same molecule, the binding result in assay [2] and in assay [6] was “no binding (tested: about 20 nM (log10 about 1.3))” each time. The “Inhibition of Factor Bb Deposition on Zymosan (IC50 nM), 10% factor D-depleted human serum with pro-factor D” value in assay [7] was found to be 0.2 nM. The molecule further came in with a binding affinity in assay [4] of at most 500 pM. Moreover, the “Inhibition of Rabbit Erythrocyte Lysis (IC50 nM), 10% factor D-depleted human serum” value in assay [5] was 0.2 nM.
